Results published in article PMC3548785.

Molecular target: His-ASF/SF2 (UniProt Q07955)
Test: intrinsic tryptophan fluorescence quenching
Details: 100 mM KCl, 20 mM Tris-HCl pH 7.5, room temperature, 100 nM His-ASF/SF2, excitation 280 nm, emission 340 nm

His-ASF/SF2, sequence (Q07955 whole entry): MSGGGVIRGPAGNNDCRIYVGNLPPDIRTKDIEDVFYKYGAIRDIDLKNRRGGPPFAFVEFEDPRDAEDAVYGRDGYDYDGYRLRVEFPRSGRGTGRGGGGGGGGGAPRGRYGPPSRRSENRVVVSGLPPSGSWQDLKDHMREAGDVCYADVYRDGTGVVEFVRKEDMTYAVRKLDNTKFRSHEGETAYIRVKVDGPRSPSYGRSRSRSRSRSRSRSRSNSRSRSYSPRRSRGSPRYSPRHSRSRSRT

## Genomic HDV RNA
  Kd: 40 nM
